Test system: patient-derived xenograft (PDX) model
Assay: Anti-tumor effect (TGI) in patient-derived xenograft models, 10 to 15 days after administration
Type: in vivo, nu/nu mice
Conditions: for TGI (%): 10 mg/kg tail vein; for Proportion of PDX models showing TGI of 75% or more: TGI at 10 to 15 days
Procedure: Mice: Female nu/nu mice (Envigo) aged 5-8 weeks were acclimatized under SPF conditions for 3 days or more prior to experimental use. Mice were fed with sterile solid feed (Teklad2919, Envigo) and given reverse osmosis membrane-treated water (containing 2 ppm chlorine).
Measurements and Calculation formula: long and short diameters of tumors were measured twice a week with an electronic digital caliper (CD-6PMX, Mitutoyo Corp.) and tumor volume (mm^3) was calculated using the following calculation formula: Tumor volume (mm^3)=0.52×Long diameter (mm)×[Short diameter (mm)]^2
Tumor fragments from each cancer patient were subcutaneously implanted into mice and passaged. The obtained tumors were used to subcutaneously implant tumor fragments, which were cut to approximately 5×5×5 mm^3, into the left abdomen of female nu/nu mice, thereby each patient-derived xenograft (PDX) model was created. Mice were randomly grouped when the mean transplanted tumor volume reached 150 to 300 mm^3 (Day 0). On the same day as grouping, the antibody-drug conjugate (1) was administered into the tail vein at a dose of 10 mg/kg. A formulation buffer was similarly administered at a volume of 10 mL/kg as a negative control.
Data on the amount of gene expression in each PDX model used in Example 4 were obtained by the next-generation RNA sequencing method using RNA extracted from formalin-fixed paraffin-embedded specimens of each tumor. After the obtained data were normalized to a FPKM value, 1 was added to FPKM, and the sum was transformed to a logarithmic (log2) to obtain a log2[FPKM+1] value (Table 6). The log2[FPKM+1] value was used to analyze the relationship between the anti-tumor activity of antibody-drug conjugate (1) in each PDX model (Table 5) and the amount of expression of the hTROP2 gene and the SLFN11 gene.

B1: antibody-drug conjugate (1): humanized anti-hTROP2 antibody (SEQ ID NO: 1 residues 20-470, SEQ ID NO: 2 residues 21-234) conjugated to the exatecan-derivative drug-linker via a thioether bond (conjugate, chains of the INN, looked up)
VH: QVQLVQSGAEVKKPGASVKVSCKASGYTFTTAGMQWVRQAPGQGLEWMGWINTHSGVPKYAEDFKGRVTISADTSTSTAYLQLSSLKSEDTAVYYCARSGFGSSYWYFDVWGQGTLVTVSS
VL: DIQMTQSPSSLSASVGDRVTITCKASQDVSTAVAWYQQKPGKAPKLLIYSASYRYTGVPSRFSGSGSGTDFTLTISSLQPEDFAVYYCQQHYITPLTFGQGTKLEIK
modifications: exatecan-derivative drug-linker
- TGI (%) (PDX model #1, Breast, Day 14): 95.2%
- TGI (%) (PDX model #2, Lung, Day 14): 68.3%
- TGI (%) (PDX model #3, Cholangiocarcinoma, Day 14): 22.2%
- TGI (%) (PDX model #4, Pancreatic, Day 14): 21.8%
- TGI (%) (PDX model #5, Colorectal, Day 14): 41.7%
- TGI (%) (PDX model #6, Breast, Day 14): 92.4%
- TGI (%) (PDX model #7, Breast, Day 15): 87.6%
- TGI (%) (PDX model #8, Head & neck, Day 14): 57.9%
- TGI (%) (PDX model #9, Head & neck, Day 14): 94.0%
- TGI (%) (PDX model #10, Lung, Day 14): 97.3%
- TGI (%) (PDX model #11, Lung, Day 14): 87.4%
- TGI (%) (PDX model #12, Breast, Day 15): 90.0%
- TGI (%) (PDX model #13, Lung, Day 14): 62.3%
- TGI (%) (PDX model #14, Breast, Day 14): 82.7%
- TGI (%) (PDX model #15, Cholangiocarcinoma, Day 14): 46.4%
- TGI (%) (PDX model #16, Colorectal, Day 14): 26.0%
- TGI (%) (PDX model #17, Breast, Day 14): 56.5%
- TGI (%) (PDX model #18, Lung, Day 14): 14.6%
- TGI (%) (PDX model #19, Lung, Day 14): 28.1%
- TGI (%) (PDX model #20, Lung, Day 14): 82.0%
- TGI (%) (PDX model #21, Lung, Day 14): 76.6%
- TGI (%) (PDX model #22, Lung, Day 14): 87.9%
- TGI (%) (PDX model #23, Lung, Day 14): 4.7%
- TGI (%) (PDX model #24, Lung, Day 14): 19.1%
- TGI (%) (PDX model #25, Pancreatic, Day 14): 37.9%
- TGI (%) (PDX model #26, Pancreatic, Day 13): 62.3%
- TGI (%) (PDX model #27, Lung, Day 13): 48.5%
- TGI (%) (PDX model #28, Breast, Day 14): 92.6%
- TGI (%) (PDX model #29, Breast, Day 14): 97.4%
- TGI (%) (PDX model #30, Lung, Day 10): 84.7%
- TGI (%) (PDX model #31, Colorectal, Day 14): 58.4%
- TGI (%) (PDX model #32, Lung, Day 13): 64.9%
- TGI (%) (PDX model #33, Lung, Day 14): 25.0%
- TGI (%) (PDX model #34, Lung, Day 13): 89.7%
- TGI (%) (PDX model #35, Lung, Day 14): −0.4%
- Proportion of PDX models showing TGI of 75% or more (log2[FPKM+1]: hTROP2 >4.0, SLFN11 >1, 21 models): 57%
- Proportion of PDX models showing TGI of 75% or more (log2[FPKM+1]: hTROP2 >4.0, SLFN11 >2, 15 models): 60%
- Proportion of PDX models showing TGI of 75% or more (log2[FPKM+1]: hTROP2 >4.0, SLFN11 >3, 9 models): 67%
- Proportion of PDX models showing TGI of 75% or more (log2[FPKM+1]: hTROP2 >4.0, SLFN11 All models, 32 models): 44%
- Proportion of PDX models showing TGI of 75% or more (log2[FPKM+1]: hTROP2 >5.0, SLFN11 >1, 18 models): 56%
- Proportion of PDX models showing TGI of 75% or more (log2[FPKM+1]: hTROP2 >5.0, SLFN11 >2, 13 models): 62%
- Proportion of PDX models showing TGI of 75% or more (log2[FPKM+1]: hTROP2 >5.0, SLFN11 >3, 7 models): 71%
- Proportion of PDX models showing TGI of 75% or more (log2[FPKM+1]: hTROP2 >5.0, SLFN11 All models, 29 models): 41%
- Proportion of PDX models showing TGI of 75% or more (log2[FPKM+1]: hTROP2 >6.0, SLFN11 >1, 17 models): 59%
- Proportion of PDX models showing TGI of 75% or more (log2[FPKM+1]: hTROP2 >6.0, SLFN11 >2, 12 models): 67%
- Proportion of PDX models showing TGI of 75% or more (log2[FPKM+1]: hTROP2 >6.0, SLFN11 >3, 6 models): 83%
- Proportion of PDX models showing TGI of 75% or more (log2[FPKM+1]: hTROP2 >6.0, SLFN11 All models, 25 models): 48%
- Proportion of PDX models showing TGI of 75% or more (log2[FPKM+1]: hTROP2 >7.0, SLFN11 >1, 11 models): 64%
- Proportion of PDX models showing TGI of 75% or more (log2[FPKM+1]: hTROP2 >7.0, SLFN11 >2, 7 models): 86%
- Proportion of PDX models showing TGI of 75% or more (log2[FPKM+1]: hTROP2 >7.0, SLFN11 >3, 4 models): 100%
- Proportion of PDX models showing TGI of 75% or more (log2[FPKM+1]: hTROP2 >7.0, SLFN11 All models, 16 models): 50%
- Proportion of PDX models showing TGI of 75% or more (log2[FPKM+1]: hTROP2 All models, SLFN11 >1, 24 models): 54%
- Proportion of PDX models showing TGI of 75% or more (log2[FPKM+1]: hTROP2 All models, SLFN11 >2, 18 models): 56%
- Proportion of PDX models showing TGI of 75% or more (log2[FPKM+1]: hTROP2 All models, SLFN11 >3, 12 models): 58%
- Proportion of PDX models showing TGI of 75% or more (log2[FPKM+1]: hTROP2 All models, SLFN11 All models, 35 models): 43%
- Proportion of animal models showing TGI of 75% or more (log2[FPKM+1]: hTROP2 exceeds 7.0 and SLFN11 exceeds 3.0): 100%
